According to paper PMC3729709:

Target: recombinant soluble trimeric gp140 from the clade A Ugandan HIV-1 field isolate 94UG018 (HIV-1 clade A isolate 94UG018)
Test: SEC; final gel filtration on an SD200 column equilibrated with PBS; fractions corresponding to the gp140 trimer collected and pooled

For “recombinant soluble trimeric gp140 from the clade A Ugandan HIV-1 field isolate 94UG018 (natural protein)”, the stoichiometry N was 3.
